Reference: patent publication US20110319337A1 (published 2011)

Legend:
Experiment in all cases: cell-based or functional assay
[1] = biological target: Frizzled 9 (expressed in transfected 293T cells)
[2] = biological target: Frizzled 8 receptor (expressed in transfected cells) (human, UniProt Q9H461 28-694)
[3] = biological target: Frizzled 7 (expressed in transfected 293T cells)
[4] = biological target: T1, Frizzled 6 (expressed in transfected 293T cells)
T1 sequence (O60353 whole entry, species assumed, looked up): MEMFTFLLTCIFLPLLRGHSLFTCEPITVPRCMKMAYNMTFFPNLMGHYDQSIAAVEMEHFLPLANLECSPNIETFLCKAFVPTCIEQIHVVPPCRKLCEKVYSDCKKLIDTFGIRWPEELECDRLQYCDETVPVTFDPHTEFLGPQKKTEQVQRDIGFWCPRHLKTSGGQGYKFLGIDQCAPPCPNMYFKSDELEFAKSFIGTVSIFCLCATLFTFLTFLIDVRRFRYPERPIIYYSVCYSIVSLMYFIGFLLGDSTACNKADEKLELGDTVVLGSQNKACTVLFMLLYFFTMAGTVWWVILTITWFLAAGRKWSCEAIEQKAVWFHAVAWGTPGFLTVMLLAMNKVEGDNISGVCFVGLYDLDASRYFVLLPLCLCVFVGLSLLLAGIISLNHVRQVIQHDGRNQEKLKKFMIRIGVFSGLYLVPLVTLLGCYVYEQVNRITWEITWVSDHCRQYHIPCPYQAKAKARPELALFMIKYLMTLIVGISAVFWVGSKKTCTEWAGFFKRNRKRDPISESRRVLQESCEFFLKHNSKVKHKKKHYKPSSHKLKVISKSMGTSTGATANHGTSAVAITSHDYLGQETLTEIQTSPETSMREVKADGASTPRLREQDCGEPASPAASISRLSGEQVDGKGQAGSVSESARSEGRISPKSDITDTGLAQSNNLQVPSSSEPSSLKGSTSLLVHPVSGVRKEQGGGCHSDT

Chain of Frizzled 8 receptor (expressed in transfected cells) (Q9H461 28-694 limits assumed): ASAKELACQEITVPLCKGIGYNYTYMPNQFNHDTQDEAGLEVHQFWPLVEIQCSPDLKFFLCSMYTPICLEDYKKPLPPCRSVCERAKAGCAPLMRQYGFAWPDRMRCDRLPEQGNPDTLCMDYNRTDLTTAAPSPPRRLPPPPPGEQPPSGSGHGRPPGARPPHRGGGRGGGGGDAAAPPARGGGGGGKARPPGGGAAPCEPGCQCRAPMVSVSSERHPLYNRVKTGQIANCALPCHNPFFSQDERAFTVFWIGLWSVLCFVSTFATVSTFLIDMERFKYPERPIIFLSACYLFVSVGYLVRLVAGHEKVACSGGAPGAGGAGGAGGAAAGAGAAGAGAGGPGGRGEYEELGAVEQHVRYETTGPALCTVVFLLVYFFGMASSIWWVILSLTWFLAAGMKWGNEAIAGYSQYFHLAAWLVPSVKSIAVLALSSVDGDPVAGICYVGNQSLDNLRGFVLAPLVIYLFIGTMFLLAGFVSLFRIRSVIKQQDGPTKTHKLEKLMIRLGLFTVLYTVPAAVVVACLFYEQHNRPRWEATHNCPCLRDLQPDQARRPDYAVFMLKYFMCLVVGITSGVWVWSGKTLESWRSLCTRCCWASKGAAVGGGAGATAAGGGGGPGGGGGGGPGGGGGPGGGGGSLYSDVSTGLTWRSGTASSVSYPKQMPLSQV

luciferase activity (TOPflash TCF reporter, 293T cells co-expressing Wnt2 and the Fzd receptor) over vector control alone [1]: 16 fold
TCF activity (TOPflash reporter) in Human Embryonic Kidney 293 cells and A549 cells compared to vector control [2]: 5 fold
luciferase activity (TOPflash TCF reporter, 293T cells co-expressing Wnt2 and the Fzd receptor) compared to vector alone [2]: 25 fold
TCF-activity (TOPflash reporter, 293T cells) compared to vector control [3]: 4 fold
TCF-activity (TOPflash reporter, 293T cells), increase due to the presence of Wnt2 [3]: ~2 fold
luciferase activity (TOPflash TCF reporter, 293T cells co-expressing Wnt2 and the Fzd receptor) [4]: 10 fold
B1: wild type Wnt2 (expressed from transfected Wnt2 cDNA) (ligand)
chain: SWWYMRATGGSSRVMCDNVPGLVSSQRQLCHRHPDVMRAISQGVAEWTAECQHQFRQHRWNCNTLDRDHSLFGRVLLRSSRESAFVYAISSAGVVFAITRACSQGEVKSCSCDPKKMGSAKDSKGIFDWGGCSDNIDYGIKFARAFVDAKERKGKDARALMNLHNNRAGRKAVKRFLKQECKCHGVSGSCTLRTCWLAMADFRKTGDYLWRKYNGAIQVVMNQDGTGFTVANERFKKPTKNDLVYFENSPDYCIRDREAGSLGTAGRVCNLTSRGMDSCEVMCCGRGYDTSHVTRMTKCGCKFHWCCAVRCQDCLEALDVHTCKAPKNADWTTAT
